Data reported in the supplement of paper PMC9170038.

Key:
MS2 coat protein = experiment: apparent KD of MS2 coat protein; higher = weaker reporter binding; conditions: Eterna round: R107
Protocol: (§1)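 RNA-MaP round R107: designed RNA switches with theophylline, tryptophan, arginine or FMN aptamers are transcribed on-chip within common flanks. They are titrated with SNAP-549-labelled MS2 coat protein in RNA-MaP buffer (100 mM Tris pH 7.5, 80 mM KCl, 4 mM MgCl2), without ligand or with the indicated ligand. Median apparent KD per design.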

[1] = tested on: K4 kissing-loop RNA reporter; experiment: apparent KD of K4 kissing-loop reporter; higher = weaker reporter binding; conditions: Eterna round: R107;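 note: bound reporter read as fluorescence of individual clusters on recovered sequencing chips by microscopy, with normalized cluster intensities fitted with a binding model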
Protocol: as §1, with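 “a labelled K4 kissing-loop RNA reporter” for “SNAP-549-labelled MS2 coat protein”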

[2] = input ligand: theophylline 20 uM
[3] = input ligand: theophylline 2 mM
[4] = input ligand: tryptophan 2.4 mM

Sequence	apparent KD of MS2 coat protein (MS2 coat protein; input ligand: arginine 13.2 mM) [nM]	apparent KD of MS2 coat protein (MS2 coat protein; input ligand: none) [nM]	apparent KD of MS2 coat protein (MS2 coat protein; [2]) [nM]	apparent KD of MS2 coat protein (MS2 coat protein; [3]) [nM]	apparent KD of MS2 coat protein (MS2 coat protein; [4]) [nM]	apparent KD of K4 kissing-loop reporter ([1]; input ligand: FMN 200 uM) [nM]	apparent KD of K4 kissing-loop reporter ([1]; input ligand: arginine 13.2 mM) [nM]	apparent KD of K4 kissing-loop reporter ([1]; input ligand: none) [nM]	apparent KD of K4 kissing-loop reporter [1, 2] [nM]	apparent KD of K4 kissing-loop reporter [1, 4] [nM]
GGUUGGUGUAGAGAUAUAUUGAUUACUGAAGGAGCGGGAAGAAACCCAGGUAGGUCGCAGAGAUCCACAUGAGGAUCACCCAUGU [!0.L]	26.7	38.6	49.5	59.3	27.5					
AGCGAUAUGCAUGAUACCAGCUACAUGAGGAUCACCCAUGUGCGUCAGAAAUGACUGUGUAGCCCUUGGCAGCAUAAAGCAUGUA [Exclusion - Theophylline B (Freestyle 10)]	32.3		50.7		38.5					
CCAUACGUAACUGAUACCAGUGUACUGACAUGAGGAUCACCCAUGUUGGGUUUUGUUGUACACCCUUGGCAGCAGAAUCGUAUGG [AstrosExyTheB#19]	56.5		65.1		65.8					
ACUUUGUCGGGUGAUACCAGCCUCGGCACAUCUCGUGCCGAACAUGAGGAUCACCCAUGUGGCCCUUGGCAGCACAUGACAAAUC [Isredior]	70.1		522		423					
GAGUUGUGCUCAGGCCCGACUCGCUGAGAAGGAGCGCACUAAGGUGCAGGUAGGUCGCUCAGGAAUACAUGAGGAUCACCCAUGU [Erlaatti]	21.7	22.9	29.9	28.5	25.2					
AAAUAAAUCACAUGAGGAUCACCCAUGGAUACCAGGCCUGGAAACAGCCCUUGGCAGCCACAUGAGGAUCACCCAUGUGCUAAAU [MAT - Exclusion Theophlline A - Mod of Eli - D2]	98.4		207		140					
CUCUGGUGCUGAGUGAGUGUCGUGACUGAUACCAGAUGCCUUUACAUCCCUUGGCAGCAGUACAUGAGGAUCACCCAUGUAUUCC [Rireusrama]	17.2		33.5		21.1					
AGUAUACAUUCUGAUACCAGAGACAUGAGGAUCACCCAUGUCCGAUCGUCCUGCCUCAGACUCCCUUGGCAGCAGGAUAUGUGCU [Exclusion Theophylline B GF5]	16.2		21.8		16.6					
GCUGUACCAUGAAGGAGCGUCAUGGAUUGCGAAUACACAUGAGGAUCACCCAUGUUUUUAUGACAGGUAGGUCGCAUGGUACAGC [#01 Same State - Arginine B]	17.8	14.5	24.5	19.2	17.1					
ACUAGAGGUGGAAGGAGCGGGAGACAUGAGGAUCACAUGAGGAUCACCCAUGUAGGAUCAUCCCAGGUAGGUCGCCAUGUCGAAA [,mmlmullin]	46	979	255	456	293					
AGACAUGAGGAUCACCCAUGUAGUACGGAUACCAGAUCCAGAUGCGUCCCUUGGCAGCUGUAGUACAGCGUUACGUCGCUCAUAG [Exclusion - Theophylline A (Freestyle 26)]	20.3		48.1		28.4					
AGCAAGCAACAUGAGGAUCACCCAUGUGAAGGAGCGCCGAAUAAGGCAGGUAGGUCGCACAUGAAUAAAUCAUGUAAAAGCUUGC [MAT - Exclusion Arginine A - Mod of Eli - D23]	104	185	164	68.1	138					
AACGCGGUGAUGGUAGCCGGACGCUAGGUACGAGGACCGGUACGGCCGCCACUCGGAGUCCUACGACAUGAGGAUCACCCAUGUA [Same State Trp A GF15]	53.9		140	145						
ACACGAAGCUGAAGGAGCGUGGUACAAGUUUUUACAUGAGGAUCACCCAUGUUUCGUCAAUCACAGGUAGGUCGCAGAUGCGUGA [#08 Same State - Arginine B]	32.1	29.2	42.5	36.6	25.9					
ACACGGAAUGAUGGAUCACCUCGUGAAUCACGAGGACCGGUACGGCCGCCACUCGAAAACCGUGACCUGUACGAAAAGUGCAGGA	322	89.7	232	250	56.5					
UGACUACAGGAAUAAUAAUCCUAGUGAUGUUAGGAUAUGCUGAUAAGCAGAAGGAACUGAGAUCGAAAGAUCUCAAAAGUAGUCU [FmnAX 28 Mat Inspired #SwitchBubble #StaticStem #K4Early]						139	89.3	92.9	106	96.7
AAAAUAAAUAGCAGUCACGGAGUGAUGUUCCGAGGACCGGUACGGCCGCCACUCGACCAUCAUAAGAUGGAAUGGCGAGACUGCA [#SwitchBubble 21 #K4Early]						134	135	137	138	354
UUUAUGAUGUCGGCCGCCACUGGAUUAAUAUGUGUGUAAUCUAGUUCUGAGUGAUGUUUAGAGUCCAGGACCGGGACAUUAGUUA [#12 K4 Tryptophan B Exclusion]						719	476	652	832	700
UGGAGUUGACGAAAAGUCAACUCCUGAGAAGGAGCGGACGAAAGUCCAGGUAGGUCGCUCACUACCAGUGAUGUUGGUACUGAAA						187	228	203	229	164

Sequence	apparent KD of MS2 coat protein (MS2 coat protein; input ligand: arginine 13.2 mM) [nM]	apparent KD of MS2 coat protein (MS2 coat protein; input ligand: none) [nM]	apparent KD of MS2 coat protein (MS2 coat protein; [2]) [nM]	apparent KD of MS2 coat protein (MS2 coat protein; [3]) [nM]	apparent KD of MS2 coat protein (MS2 coat protein; [4]) [nM]	apparent KD of K4 kissing-loop reporter ([1]; input ligand: FMN 200 uM) [nM]	apparent KD of K4 kissing-loop reporter ([1]; input ligand: arginine 13.2 mM) [nM]	apparent KD of K4 kissing-loop reporter ([1]; input ligand: none) [nM]	apparent KD of K4 kissing-loop reporter [1, 2] [nM]	apparent KD of K4 kissing-loop reporter [1, 4] [nM]
UUUAUAAAGUCGGCCGCCACUGGAUUUAUAUUUGUUUAGUCUGGAUCAAAGUGAUGUUUUGAGUCCAGGACCGGGACAUUUGUUA [whbob_Ex_Tryp_B_w36]						92.1	85.9	93.5	91.9	172
UCUGCUGUAUAUGAUACCAGCAGUGAGAGACCAGAAGUAUAGUGAUGUUAUAUGAGAGAAUGCCCUUGGCAGCGUGUGCGGGUGG [SSTheophylB.Z]						85.4	87.6	67.5	84.7	61.6
CCGCUGUACUGCAAUAAGUGAUGUUUAUUGCAGGAUAUCUGGAAACAGAGAAGGGCAUGUACUCGACUUAGCCACUACAGCGGUU						144	57.3	61.1	56.9	65.2
UGUGUUGUGUAGUGUUAUGUUUUGAGGGAUACCAGAGUGUUUUUAUUCCCUUGGCAGCUUGAGUGAUGUUUGAUGUUGUUGUUGU [jlljmullin]						297	178	218	219	184
AUUUUAUUAACUGAUACCAGACUUAAUGAUUUGUAAAUUACUAGUGAUGUUAGUGAUUCUGUCCCUUGGCAGCAGUAUUUAUUUA [JR_ExcTheophyB_Sub013]						76.2	85.6	79.2	87.6	69.4
AGGUUUUGAUCAGGAUAUGCAUUGACGAUGAGAAUAUAGUGAUGUUAUAUACUACGAAUUAGUAAAGUAGAAGGGAUUGAGGUUU [SSFMNB.aB]						747	565	820	898	518
GGACGACAGGCGGCCGCCACUCACAGCAGCCAGCGAGUGAUGUUCGUAGCGGAGUGAUGUUCCGAGAGGACCGGGUCUGCAGUCC [Same State Tryptophan B GF 17]						246	178	224	168	223
AAAAUAAUCCAGUGAUGUUGGUAUCCAGAUACCAGCCACGAAAGUGGCCCUUGGCAGCUGUGGACGUACAAAAUAAGUACGUCCU [#OpenEnded 8 #StaticStem #K4Early]						534	293	729	790	651
GACAUCUAUCGCCGAUAGUGUUUAUCUUGGGAGGAUAUGUCAGCGGACAGAAGGCCCAGUGAUGUUGGGUAGAUGACCGUUGCCU [Orerditi]						337	123	131	131	128
CGUGAGUGAUGUUCACGAGGCUUGUUUCUAGAGGAUAUUCACUUUAGAAGAAGGCUAGAGAUCUAUAUCGUGAUGCUCGAUAACG [FMN A Ex t1]						295	247	197	260	155
UUAUACUCAUGUAAAGAACUAGUAACCGAAGGAGCGACAUAAAAGUCAGGUAGGUCGCGGAUUUCUCAGUGAUGUUGAGAGCAUU [JR_SSArginiA_Sub012]						109	192	121	185	93.9
UAAUCCUAGUGAUAAUAAUCAAGUGGUGGGCGAGGACCGGUACGGCCGCCACUCGAAUAUGCAGUGAUGUUGUAAUCCGGAUAAU [Exclusion - Tryptophan A (Freestyle 6)]						667	926	919	894	594
AGUGGAACUUGCAGGUAUCCACAACUGGAUACCAGCUCGGAAACGAGCCCUUGGCAGCCAGAUCUUGCAGUGAUGUUGCAAGUUC [Design10]						392	323	392	412	381
UAGUCCUAGUGAUCCUUAUCAAGUGGUGGGCGAGGACCGGUACGGCCGCCACUCGAAUAUGCAGUGAUGUUGUAAUCCGGAUAAU [Exclusion - Tryptophan A (Freestyle 10)]						596	511	727	846	417
UUUAAAUAUAGUGAUGUUAUAUAACAAUGACGAGGACCGGUACGGCCGCCACUCGAGAGAGAUAAUGGUCAUACAAAUGUAUGUU [AstrosSSTryA#10]						672	677	738	789	529
AAAAUAAAUAGCAGUCACGGAGUGAUGUUCCGAGGACCGGUACGGCCGCCACUCGACCAGACAAAGUCUGGAUGGCGAGACUGCA [#SwitchBubble 19 #K4Early]						200	290	342	392	340
UCCCGAGUGAUGUUUGGCUGAUGGAGUGAUACCAGUCCCUAGACUGACCCUUGGCAGCACGACUUGUACCAGGCGGAUCACCCUG [theeternabot_exclusion_KL_Theo_A_5]						479	260	423	431	366
CGGAACGCAUCGGCCGCCACUUUUAUCUGCAGUGAUGUUGCAGUAUCCGAGCAAGGCUGUUGUGAAAGGACCGGGAUGGUCCGUU [Tibeberi]						87.5	96.6	92.7	97.4	143
AACUCUCAGACACUUGAGUGAUGUUCGGGCCGAGGACCGGUACGGCCGCCACUCGGGUCUGAGAGAGGUUAUCAAAGAUAGCCAA [Omei KL Tryp A SS A v9]						303	87.3	153	141	164
